From patent US20190016822A1 (MEDITOPE BIOSCIENCES, published 2019)

B1: SnAP-body variant 1 (anti-CD33) (antibody, human IgG1, kappa)
heavy: not shown
light: QIVLTQSPAIMSASPGEKVTITCSASSSISYMHWFQQRTNGSPRLWIYTTSNLASGVPARFSGSGSGTSYSLTISRMEAEDEADYYCHQRSTYPLTFGAGTKLELKRTVAAPSVFIFPPSDEQLKSGTASVVCLLNNFYPREAKVQWKVDNALQSGNSQESVTEQDSKDSTYSLSSTLTLSKADYEKHKVYACEVTHQGLSSPVTKSFNRGEC
notes: also called self-crosslinking antibody; Anti-CD33 SnAP-body variant 1
B2: SnAP-body variant 3 (anti-CD33) (antibody, human IgG1, kappa)
heavy: not shown
light: B1 light
notes: also called self-crosslinking antibody
B3: SnAP-body variant 2 (anti-CD33) (antibody, human IgG1, kappa)
heavy: not shown
light: B1 light
notes: also called self-crosslinking antibody; Anti-CD33 SnAP-body variant 2
B4: control antibody (meditope-enabled gemtuzumab IgG1 without meditope or linker) (antibody)
heavy: not shown
light: B1 light
notes: IgG1; also called control gemtuzumab antibody; gemtuzumab control antibody

What was measured:
[1] = biological target: the molecule itself; experiment: size-exclusion chromatography; self-crosslinking
[2] = biological target: the molecule itself; experiment: size-exclusion chromatography; self-association

Protein | binding result [1] | binding result [2]
B1 | binds | 
B2 | binds | 
B3 | binds | 
B4 |  | no binding
